Measurements published in PMC4488245.
One block for each substance: values may come before it.

Legend:
[1] = target: TcP37/NRBD (T. cruzi (endogenous in CL Brener epimastigotes)); test: co-IP; anti-P34/P37 antibody cross-linked to Protein A Dynabeads, 1 mg epimastigote whole cell extract, 4°C overnight, washed in PBS-T; pellet and supernatant blotted with anti-TcL5 peptide antibody; extracts with or without RNase A (20 U/ml, 1 hour, 37°C)
[2] = test system: TcL5 (ribosomal protein L5) (Trypanosoma cruzi CL Brener); test: filter binding; conditions: 10 mM Tris pH 7.4, 1 mM EDTA, 100 mM NaCl, 0.1% NP40, 100 ug/mL BSA; room temperature, 30 min; 0.5 fmol RNA in 50 ul, 0-500 nM protein
[3] = test system: TcP37/NRBD (Trypanosoma cruzi CL Brener); test: filter binding; conditions: 10 mM Tris pH 7.4, 1 mM EDTA, 100 mM NaCl, 0.1% NP40, 100 ug/mL BSA; room temperature, 30 min; 0.5 fmol RNA in 50 ul, 0-500 nM protein
[4] = target: rTcL5 (T. cruzi); test: co-IP; 500 ng rTcP37/NRBD and 500 ng rTcL5, with or without 500 ng in vitro transcribed Tc 5S rRNA, applied to TcL5 antibody cross-linked Dynabeads; eluate and supernatant blotted with P34/P37 antibodies

decrease of the association after RNase A treatment of the extract [1]: 74%
Substance: TcL5 (natural protein)

Substance: Tc 5S rRNA
Kd [2]: 11 nM
Kd [3]: 63 nM

increase of the association in the presence of 5S rRNA [4]: 62%
Substance: rTcP37/NRBD (natural protein)
